According to publication PMC7699706, “Responses of DNA Mismatch Repair Proteins to a Stable G-Quadruplex Embedded into a DNA Duplex Structure”:
Positions count from the first letter of the chain named.

Legend:
ecMutS [1] = molecular target: T1, ecMutS (Escherichia coli, UniProt P23909 1-853); assay: EMSA; 1 mM ATP, 5 mM MgCl2; MutS EMSA: 5 nM DNA, 20 mM HEPES-KOH pH 7.9, 5 mM MgCl2, 120 mM KCl, 0.5 mg/mL BSA, 1 mM nucleotide, 37 C 15 min; MutL EMSA: 100 nM DNA, 20 mM HEPES pH 8.0 (10); conditions: protein: recombinant, chain copies: 2, blunt
T1 sequence: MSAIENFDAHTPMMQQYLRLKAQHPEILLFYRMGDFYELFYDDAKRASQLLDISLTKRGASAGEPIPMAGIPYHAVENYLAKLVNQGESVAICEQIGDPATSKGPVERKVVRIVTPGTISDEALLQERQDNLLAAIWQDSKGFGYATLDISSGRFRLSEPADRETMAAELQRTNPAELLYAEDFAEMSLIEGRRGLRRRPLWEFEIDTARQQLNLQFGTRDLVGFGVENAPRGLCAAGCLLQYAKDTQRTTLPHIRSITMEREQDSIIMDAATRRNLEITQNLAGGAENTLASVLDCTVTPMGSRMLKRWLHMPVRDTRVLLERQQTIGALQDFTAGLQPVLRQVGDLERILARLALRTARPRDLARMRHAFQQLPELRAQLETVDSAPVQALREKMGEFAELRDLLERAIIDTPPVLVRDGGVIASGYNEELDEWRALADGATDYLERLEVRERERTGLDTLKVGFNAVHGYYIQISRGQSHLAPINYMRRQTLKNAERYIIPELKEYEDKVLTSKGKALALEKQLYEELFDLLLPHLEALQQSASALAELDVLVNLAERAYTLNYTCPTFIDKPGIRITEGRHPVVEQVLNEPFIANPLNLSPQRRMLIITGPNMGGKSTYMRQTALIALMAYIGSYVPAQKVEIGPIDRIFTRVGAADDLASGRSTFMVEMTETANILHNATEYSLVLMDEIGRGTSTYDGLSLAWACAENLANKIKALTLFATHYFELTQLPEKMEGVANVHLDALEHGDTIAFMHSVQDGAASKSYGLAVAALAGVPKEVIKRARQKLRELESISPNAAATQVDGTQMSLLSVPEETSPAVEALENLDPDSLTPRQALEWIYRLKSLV

rsMutS [2] = molecular target: T2, rsMutS (Rhodobacter sphaeroides strain 2.4.1, UniProt Q3IYI5 1-875); assay: as above; conditions: protein: recombinant, tags: N-terminal His6 (pET15b), chain copies: 2, blunt
T2 sequence: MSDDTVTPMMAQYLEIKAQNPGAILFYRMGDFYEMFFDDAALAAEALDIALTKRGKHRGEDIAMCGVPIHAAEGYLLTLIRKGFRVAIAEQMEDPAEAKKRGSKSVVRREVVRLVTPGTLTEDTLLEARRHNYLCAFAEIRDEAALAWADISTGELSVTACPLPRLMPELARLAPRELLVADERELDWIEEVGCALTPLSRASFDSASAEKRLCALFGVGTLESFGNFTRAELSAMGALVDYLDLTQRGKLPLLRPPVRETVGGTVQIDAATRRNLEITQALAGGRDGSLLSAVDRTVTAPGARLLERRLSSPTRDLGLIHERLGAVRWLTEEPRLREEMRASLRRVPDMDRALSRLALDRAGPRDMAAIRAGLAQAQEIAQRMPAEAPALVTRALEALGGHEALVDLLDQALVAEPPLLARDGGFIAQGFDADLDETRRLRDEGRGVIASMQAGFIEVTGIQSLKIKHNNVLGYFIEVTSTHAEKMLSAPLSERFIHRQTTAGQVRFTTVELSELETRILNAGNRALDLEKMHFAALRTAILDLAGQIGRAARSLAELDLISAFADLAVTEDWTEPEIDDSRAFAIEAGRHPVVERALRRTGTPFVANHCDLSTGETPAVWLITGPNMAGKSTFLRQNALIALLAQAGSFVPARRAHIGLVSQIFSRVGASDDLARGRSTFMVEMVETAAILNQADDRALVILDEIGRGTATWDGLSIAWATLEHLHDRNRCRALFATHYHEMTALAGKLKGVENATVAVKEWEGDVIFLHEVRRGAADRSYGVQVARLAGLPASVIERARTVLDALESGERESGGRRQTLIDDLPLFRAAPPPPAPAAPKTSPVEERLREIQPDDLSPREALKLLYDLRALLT

ecMutS [3] = molecular target: T1, ecMutS; assay: EMSA; 1 mM ATPgS, 5 mM MgCl2; MutS EMSA: 5 nM DNA, 20 mM HEPES-KOH pH 7.9, 5 mM MgCl2, 120 mM KCl, 0.5 mg/mL BSA, 1 mM nucleotide, 37 C 15 min; MutL EMSA: 100 nM DNA, 20 mM HEPES pH 8.0 (10); conditions: protein: recombinant; chain copies: 2; label: 3'-TAMRA on strand 2 (95G4); blunt; 19-nt insert in strand 2 folded as intramolecular parallel G4 within duplex
rsMutS [4] = molecular target: T2, rsMutS; assay: as above; conditions: protein: recombinant; tags: N-terminal His6 (pET15b); chain copies: 2; label: 3'-TAMRA on strand 2 (95G4); blunt; 19-nt insert in strand 2 folded as intramolecular parallel G4 within duplex
ecMutS [5] = molecular target: T1, ecMutS; assay: EMSA; 1 mM ADP, 5 mM MgCl2; MutS EMSA: 5 nM DNA, 20 mM HEPES-KOH pH 7.9, 5 mM MgCl2, 120 mM KCl, 0.5 mg/mL BSA, 1 mM nucleotide, 37 C 15 min; MutL EMSA: 100 nM DNA, 20 mM HEPES pH 8.0 (10); conditions: protein: recombinant, chain copies: 2, blunt
rsMutS [6] = molecular target: T2, rsMutS; assay: as above; conditions: protein: recombinant, tags: N-terminal His6 (pET15b), chain copies: 2, blunt
ecMutL [7] = molecular target: T3, ecMutL (Escherichia coli, UniProt P23367 1-615); assay: EMSA; no nucleotide, on ice, 100 nM DNA; MutS EMSA: 5 nM DNA, 20 mM HEPES-KOH pH 7.9, 5 mM MgCl2, 120 mM KCl, 0.5 mg/mL BSA, 1 mM nucleotide, 37 C 15 min; MutL EMSA: 100 nM DNA, 20 mM HEPES pH 8.0 (10); conditions: protein: recombinant; chain copies: 2; label: 3'-TAMRA on strand 2 (95G4); blunt; 19-nt insert in strand 2 folded as intramolecular parallel G4 within duplex
T3 sequence (P23367 whole entry): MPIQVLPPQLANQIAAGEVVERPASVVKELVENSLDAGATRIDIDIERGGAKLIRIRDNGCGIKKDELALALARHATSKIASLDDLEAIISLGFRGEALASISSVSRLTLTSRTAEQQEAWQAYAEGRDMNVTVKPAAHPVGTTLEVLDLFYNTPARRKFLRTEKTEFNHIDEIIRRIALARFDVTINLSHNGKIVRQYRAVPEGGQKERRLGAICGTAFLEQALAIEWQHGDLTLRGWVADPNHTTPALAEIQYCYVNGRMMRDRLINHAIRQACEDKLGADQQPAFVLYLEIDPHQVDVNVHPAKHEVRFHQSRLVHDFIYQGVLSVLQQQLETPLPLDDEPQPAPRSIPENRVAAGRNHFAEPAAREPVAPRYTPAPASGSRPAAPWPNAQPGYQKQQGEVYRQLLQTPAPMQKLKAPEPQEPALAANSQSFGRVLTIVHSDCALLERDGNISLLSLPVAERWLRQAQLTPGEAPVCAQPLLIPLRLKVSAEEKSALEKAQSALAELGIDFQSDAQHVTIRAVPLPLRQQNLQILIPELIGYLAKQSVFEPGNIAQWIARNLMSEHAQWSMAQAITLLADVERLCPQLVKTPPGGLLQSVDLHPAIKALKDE

ecMutL [8] = molecular target: T3, ecMutL; assay: as above; conditions: protein: recombinant, chain copies: 2, blunt
[9] = label: 3'-TAMRA on strand 2 (95G4), 19-nt insert in strand 2 folded as intramolecular parallel G4 within duplex
[10] = label: 3'-TAMRA on strand 2 (76T), single G/T mismatch
[11] = label: 3'-TAMRA on strand 2 (95(GT)8), 19-nt unstructured (GT)8 loop in strand 2
[12] = label: 3'-TAMRA on strand 2 (76T), perfect duplex

B1: 76/95G4-A/T (mixed)
DNA 1: TCCTTTCGCGCTTGGATCCTATGAGCGTTACTCGAGCATATGGCTCAGCTGCCAAGCACCAGTGTCAGCGTCCTAT
DNA 2: ATAGGACGCTGACACTGGTGCTTGGCAGCTGAGCCATATTTGGGTGGGTGGGTGGGTTGCTCGAGTAACGCTCATAGGATCCAAGCGCGAAAGGA
modifications: N6-methyl-dA at position 16 of strand 1 (Gm6ATC)
Work on B1 yielded a Kd (ecMutS [1]; [9]) of 0.032 ± 0.004 µM, a Kd (rsMutS [2]; [9]) of 0.023 ± 0.003 µM and a Kd (ecMutS [3]) of 0.031 ± 0.004 µM. For the same binder, the Kd (rsMutS [4]) was 0.046 ± 0.005 µM, the Kd (ecMutS [5]; [9]) was 0.023 ± 0.005 µM and the Kd (rsMutS [6]; [9]) was 0.023 ± 0.003 µM. It also gave a Kd (ecMutL [7]) of roughly 0.2 µM.

B2: 76/76-G/T (dsDNA)
DNA 1: B1 DNA 1 with A55G
DNA 2: ATAGGACGCTGACACTGGTGCTTGGCAGCTGAGCCATATGCTCGAGTAACGCTCATAGGATCCAAGCGCGAAAGGA
modifications: N6-methyl-dA at position 16 of strand 1 (Gm6ATC)
B2 was tested, and the Kd (ecMutS [1]; [10]) was 0.038 ± 0.004 µM, the Kd (rsMutS [2]; [10]) was 0.06 ± 0.01 µM and the Kd (ecMutS [5]; [10]) was 0.035 ± 0.003 µM. The Kd (rsMutS [6]; [10]) was 0.027 ± 0.004 µM and the binding signal (ecMutL [8]; [10]) was > 3.7 fold lower binding extent than 76/95G4-A/T at 0.1 uM ecMutL (at least).

B3: 76/95(GT)8-A/T (mixed)
DNA 1: B1 DNA 1
DNA 2: B1 DNA 2 with G43T, G47T, G51T, G55T
modifications: N6-methyl-dA at position 16 of strand 1 (Gm6ATC)
With B3 the Kd (ecMutS [1]; [11]) was 0.044 ± 0.006 µM, the Kd (rsMutS [2]; [11]) was 0.043 ± 0.005 µM and the Kd (ecMutS [5]; [11]) was 0.032 ± 0.003 µM. The Kd (rsMutS [6]; [11]) was 0.031 ± 0.003 µM and the binding signal (ecMutL [8]; [11]) was 1.9 fold lower binding extent than 76/95G4-A/T at 0.1 uM ecMutL.

B4: 76/76-A/T (dsDNA)
DNA 1: B1 DNA 1
DNA 2: B2 DNA 2
modifications: N6-methyl-dA at position 16 of strand 1 (Gm6ATC)
B4 showed a Kd (ecMutS [1]; [12]) of 0.05 ± 0.01 µM, a Kd (rsMutS [2]; [12]) of 0.08 ± 0.03 µM and a Kd (ecMutS [5]; [12]) of 0.038 ± 0.004 µM. For the same binder, the Kd (rsMutS [6]; [12]) was 0.051 ± 0.004 µM and the binding signal (ecMutL [8]; [12]) was > 3.7 fold lower binding extent than 76/95G4-A/T at 0.1 uM ecMutL (at least).
